Holding throughout (experiment): SPR, antibody captured, C2 as analyte;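 further: biacore at 37 °C, anti-C2 mAbs held by immobilised goat anti-human IgG, C2 alanine or serine mutants injected, double-referenced sensorgrams fitted to a 1:1 kinetic or steady-state model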
On the technique in general: In SPR one partner is held on a chip, and binding of the other changes the refractive index at the surface.

In assay [1] the target is T1, human C2 G427A (human, UniProt P06681 21-752).
T1 sequence: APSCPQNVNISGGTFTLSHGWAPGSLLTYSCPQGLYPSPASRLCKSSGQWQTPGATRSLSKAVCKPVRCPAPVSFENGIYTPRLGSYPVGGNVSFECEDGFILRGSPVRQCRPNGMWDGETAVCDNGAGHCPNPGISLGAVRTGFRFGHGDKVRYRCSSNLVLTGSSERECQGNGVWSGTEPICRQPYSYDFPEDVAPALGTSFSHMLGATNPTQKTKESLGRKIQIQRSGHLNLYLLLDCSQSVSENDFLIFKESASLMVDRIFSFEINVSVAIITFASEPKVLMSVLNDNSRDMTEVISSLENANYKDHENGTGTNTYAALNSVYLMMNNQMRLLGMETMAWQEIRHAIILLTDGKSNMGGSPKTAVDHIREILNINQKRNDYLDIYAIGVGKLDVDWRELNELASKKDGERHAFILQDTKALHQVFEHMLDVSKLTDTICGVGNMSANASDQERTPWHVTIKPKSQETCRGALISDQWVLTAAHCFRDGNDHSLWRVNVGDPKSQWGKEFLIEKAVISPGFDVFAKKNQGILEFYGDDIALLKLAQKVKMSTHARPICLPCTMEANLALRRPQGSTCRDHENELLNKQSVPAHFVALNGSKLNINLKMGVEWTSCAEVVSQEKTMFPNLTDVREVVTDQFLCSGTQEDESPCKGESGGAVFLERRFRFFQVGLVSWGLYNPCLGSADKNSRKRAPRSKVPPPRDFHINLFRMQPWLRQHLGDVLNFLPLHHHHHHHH

For assay [2], the target named is T2, human C2 S278A (human, UniProt P06681 21-752).
T2 sequence: T1 sequence with S258A, A407G

The target of assay [3] is T3, human C2 H446A (human, UniProt P06681 21-752).
T3 sequence: T1 sequence with A407G, H426A

Assay [4] deals with T4, human C2 K415A (human, UniProt P06681 21-752).
T4 sequence: T1 sequence with K395A, A407G

Positions count from the first letter of the chain named.

A word on the Kd: it is the free concentration of one partner at which half of the binding sites on the other are occupied at equilibrium, for simple one-to-one binding. The low end stands for higher affinity, the high end for lower affinity.

B1: RF16-242 (antibody, human IgG4 S228P, lambda, V domains shown)
VH: EVQLLQSGAEVKKPGESLKISCKGSGYSFTSYWIGWVRQMPGKGLEWMGIIYPGDSDTRYSPSFQGQVTISADKSISTAYLQWSSLKASDTAMYYCARRGHYGDYFDYWGQGTLVTVSS
VL: SYELTQPPSVSVSPGQTARITCSGDALPKKYAYWYHQKSGQAPVLVIYEDRRRPSEIPERFSGSSSGTMATLTITGAQVEDEGVYFCYSRDRAGNQRVFGGGTQLTVLG
notes: pH-dependent anti-C2 antibody from a phage display library
B1: the Kd in assay [1] was 4 nM; in assay [2] it was 6.5 nM; in assay [3] it was 16.1 nM; in assay [4], 4.1 nM.

For the origin of these results see US20220332804A1 (CSL INNOVATION, published 2022).
